Experimental findings from paper PMC6827878 (Cell, 2018) are described below.

The target in this assay is Recombinant PP4R3β (His tagged SMEK2) (UniProt Q5MIZ7 1-849). Kind of assay: ITC. In general terms: ITC needs no label: the signal is the heat of the interaction.
Recombinant PP4R3β (His tagged SMEK2), sequence (Q5MIZ7 whole entry): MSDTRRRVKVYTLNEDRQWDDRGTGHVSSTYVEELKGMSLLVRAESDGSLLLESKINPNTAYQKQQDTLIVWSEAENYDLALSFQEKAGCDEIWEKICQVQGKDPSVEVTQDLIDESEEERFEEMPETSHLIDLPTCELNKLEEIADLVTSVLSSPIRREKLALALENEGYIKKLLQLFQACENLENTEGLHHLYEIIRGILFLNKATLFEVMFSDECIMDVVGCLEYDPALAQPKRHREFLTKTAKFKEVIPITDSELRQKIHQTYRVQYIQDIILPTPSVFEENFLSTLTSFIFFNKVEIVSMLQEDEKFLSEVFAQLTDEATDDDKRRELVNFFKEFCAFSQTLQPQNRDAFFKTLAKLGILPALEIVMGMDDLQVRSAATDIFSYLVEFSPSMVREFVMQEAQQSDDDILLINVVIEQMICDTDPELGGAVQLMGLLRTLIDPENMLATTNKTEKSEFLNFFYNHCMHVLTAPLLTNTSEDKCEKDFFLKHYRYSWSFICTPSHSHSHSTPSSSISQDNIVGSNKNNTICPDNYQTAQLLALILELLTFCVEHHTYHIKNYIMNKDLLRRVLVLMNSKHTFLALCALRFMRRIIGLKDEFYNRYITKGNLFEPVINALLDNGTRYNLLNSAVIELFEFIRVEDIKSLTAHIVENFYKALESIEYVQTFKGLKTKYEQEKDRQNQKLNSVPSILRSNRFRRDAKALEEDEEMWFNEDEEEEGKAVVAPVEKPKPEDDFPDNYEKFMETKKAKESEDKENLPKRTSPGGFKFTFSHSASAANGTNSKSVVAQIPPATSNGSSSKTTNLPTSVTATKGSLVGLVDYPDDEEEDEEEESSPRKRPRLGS

B1: GST-CT45A1 (natural protein, human, UniProt Q5HYN5 1-189, looked up)
chain: MTDKTEKVAVDPETVFKRPRECDSPSYQKRQRMALLARKQGAGDSLIAGSAMSKAKKLMTGHAIPPSQLDSQIDDFTGFSKDRMMQKPGSNAPVGGNVTSSFSGDDLECRETASSPKSQREINADIKRKLVKELRCVGQKYEKIFEMLEGVQGPTAVRKRFFESIIKEAARCMRRDFVKHLKKKLKRMI
The term Kd denotes the constant that tells how readily two partners part at equilibrium. As to B1, the dissociation constant Kd was 370 ± 30 nM.
